Reference: the DeepSol protein solubility set

Assay: soluble on expression in E. coli; label from the status in PepcDB or PDB records
With “GFLSHLDIVSTFNDHLAQRHDLDPYTVTLTVREGGEVVYIGCRNSAQPLGHTFRIGMRLPAPFTATGKILLSDLGPGELRMLFSQFPQPLTSRSVAGLSQLEEELALTRARGYSIDDGQIREGMLCIGAAIRDYSGAASAGIAISLIRSEASDEKIASLGEELRTTANALSEKLGYRSQKD” the “soluble on expression in E. coli” value was “soluble”.
For “MGHHHHHHSHMELKQSLSTHLEAEKPLRRYGAVEETAWKTERLGRNQLDIISMAETTMMPEEIELEMAKIQRLREVLVRRESELRFMMDDIQLCKDIMDLKQELQNLVAIPEKEKTKLQKQREDELIQKIHKLVQKRDFLVDDAEVERLREQEEDKEMADFLRIKLKPLDKVTKSPASSRAEKKAEPPPSKPTVAKTGLALIKDCCGATQCNIM”, the “soluble on expression in E. coli” value was “soluble”.
For “MRERLKGVIKKGVKVFFTDESGIHHDPSKVRRLGLYNVPVDYPSRKLNVLASIPLFDGVPCFMSTYSNVNFKIFAEFLRLFRNSGPIVLILDSAKFHKNAYVFSVASQLGITLLFLPPYSPDLNPIEFGGTWFVG”, the “soluble on expression in E. coli” value was “soluble”.
In the case of “GPGSMDNTEETSRVTDQEERTLTETELPAPAEHVLEGDNSASEENRLHAFLIPLEDGEQFARANLQHRWYRGLTKMLWDEELERNGILIVERGESGRNNQSADEEEEEDDDGTDDCVAKMKREFRIKREQDKIVYEEDSTRTETLREEQNAISLIVTLMEEAMDRSILMNEAETMFALILDVLKPRVHYRYIYAWGVVTCCSFKPLKSEMDRLRPSDRHKPPYMRKSLPTCRVPLEPIYYLPDGGKKMRAMNELNDVRAIGWV”, the “soluble on expression in E. coli” value is reported as “not soluble”.
For “GPGSMNVCSNTTKDPLTLMAMWGSMKGYNPEQGFSFEGPEKRLEVILRSTLETHVDGLRSLDDSVWSGVVGSLNAQIVSRESNEYINSYVLTESSLFVMKNRIILITCGTTTLLNSIPNILEAISAVRGELEWVSFMHKNYSFPWMQKGPHTSLADEFATLKQHFPTGKPYIFGPVDSDHYFLFCYDDIIRPCSSEDDTQLSMTMYGLDKEQTKYWFRDRFISTSAETAAIRAATHLDRVVDGTWTLHDLQFEPCGYSINAIRDEEYQTMHITPEDHCSFASYETNSRATNYSDRMKKVLGVFRPQRFTVIVFLDPESPVGKAYNEGKGIGVEPEYYPEYSLLHRTTNEFAPGYVAMKINYVRTAAVEETDAAVGGAEPGAKSGPD”, the “soluble on expression in E. coli” value was “not soluble”.
With “MLKEFKMIEAVAPDMLDVLQERFQILRNIYWMQPIGRRSLSETMGITERVLRTETDVLKQLNLIEPSKSGMTLTERGLEVYQGLELVMNQLLGMHQIEKEMTQYFGIQRCIVVAGDSDIQKKVLSDFGDVLTNTLNLLLPNGENTIAVMGGTTMAMVAENMGSLETEKRHNLFVPARGGIGEAVSVQANSISAVMANKTGGNYRALYVPEQLSRETYNSLLQEPSIQEVLTLISHANCVVHSIGRALHMAARRKMSDDEMVMLKQKNAVAESFGYFFDEEGKVVYKIPRIGLQLKNLQEIPYVVAIAGGKTKAKAIRAYMKNAPKQTWLITDEAAANEILKGVTL” the “soluble on expression in E. coli” value was “soluble”.
For “MSLEKLKSTEFYASQIKHCFTIPSRTAKYKGLCFELAPEVYQGMEHENFYSHQADAINSLHQGENVIITTSTSSGKSLIYQLAAIDLLLKDPESTFMYIFPTKALAQDQKRAFKVILSKIPELKNAVVDTYDGDTEPEERAYIRKNARVIFTNPDMIHTSILPNHANWRHFLYHLKLVVVDELHIYKGLFGSHVALVMRRLLRLCHCFYENSGLQFISCSATLKSPVQHMKDMFGINEVTLIHEDGSPTGAKHLVVWNPPILPQHERKRENFIRESAKILVQLILNNVRTIAFCYVRRVCELLMKEVRNIFIETGREDLVTEVMSYRGGYSASDRRKIEREMFHGNLKAVISTNALELGIDIGGLDAVLMCGFPLSMANFHQQSGRAGRRNNDSLTLVVASDSPVDQHYVAHPESLLEVNNFESYQDLVLDEGHHHHHH”, the “soluble on expression in E. coli” value was “not soluble”.
In the case of “MDNEKKSMYEPGVILGGCTLRRQLNDSGEAMVFLAESGNEEKKEVIIKFFKCGYGEDEIKYLDVLTNHEQRRNIVEMLKSFETPEIRLGMVFKRYETDLFGILGDRQRLQPSTIQKYMKGLMEGLQFIHRMDYIHRDIKPENLLIDGETICIADFGETVLSTSDKVVKPGTLPYLTIEHILGYKENTKSMDIWAAACVLGAMFQGSHLFSQNSNLQTIHAIRLLLGNHTKETWPEMDKLPLMQSIELPPVGEKTFSKIENITKEAADLMEQMMKYDPTKRLMASQVLNHEYFKKEASAQAN”, the “soluble on expression in E. coli” value is reported as “not soluble”.
With “MSFLEKLVAKYEPIKEEKPKLVPKPTRKRQPETTEIVVKTRRITRRNAKAPVKEEEIGHQKAQITIVDDEEFMEQPVQEPIEIEEEQQEESHLEIALPEQPNHEPMQSSPSLPRKSFKPDMHPIAKKGGKICIVDLGLTSHTLPTEQTPGFLKRLGENVGGSIDYSYESIDELIRTAPDAWSKASMGAIRGVMLMQELVTERSMHPKSKPMEKNRLLGEEMAKLNPNDFLNHKLLEVSSLDQTVFINVNLVFSALSIQHGSVRSIVNAMSNHWIDYLIPREQQGSFTTSKKTEPLTFFPGDLTNWPAALLAAAIKLDNDQVDVTRLPSVVNMLFKHHIKVRFDHARGLYRTKHDGQNPPKIVLPKRPIIDCTQFYKSSEDIDEEQVPSTSNFQSSSNSLSTSKSAGREHIPDSP” the “soluble on expression in E. coli” value was “not soluble”.
For “MRKSRLSQHKQNKLIELFVAGVTARTASKLVNVNKNTATITFIDYAYSFIKQAHIWKCLKAKLKPMKAISAVLEKANVVAVLQGKSQYSGFSNEMQGLYRRCS”, the “soluble on expression in E. coli” value was “not soluble”.
For “MQVLWSNPIELGMTGGDVRMVKGPSDALRCLADHWPYRGPYYVAARSACRAAIDGRRTCEEARRLFLSAAEEARLKAH”, the “soluble on expression in E. coli” value was “not soluble”.
In the case of “MNLITDETLVEPNLPTFEELTRVHDRKYLKSVRNPIKAAQIVEIPFVGCLPPCIIESKLLHPLRLQAGGTVLAANLALKHGWAINVGGGFHHASHSGGGGFCFYADITMAIFDLFDKKAIANAIVVDLDAHQVLEKTFERI”, the “soluble on expression in E. coli” value is reported as “not soluble”.
In the case of “MSEVVKKFMYLNRKAPYGTIYAWEALEVVLIGAAFDQDVCVLFLDDGVYQLTRGQDTKGIGMKNFSPTYRTLGDYEVRRIYVDRDSLEARGLTQDDLVEIAFEDMETEEEFDNIVEVIDSARVSELMNESDAVFSF”, the “soluble on expression in E. coli” value is reported as “soluble”.
For “MGFFVSEGERCMTYCATEVTFPQGITSLETQVMLLQTHQNGMDIVTYSTPFHPVSHIWPDHPADRGILIWQGSEYAVTDCVVGAIEQASGHLYVGNNIPVKREESGWLFVVVHRLGEVIAACQVGDKVQLQVDTQYQASLSRGHSAGHLGYLALNKVLAQGYWRKDAERKDPQGYFDFNSYAQISSDVTPDCSTDVYRLGKTLRKRGLNSDDVLRDLSFIEQKTNEQLAQWLALASPIRLECTGSTLTDSRYWECDLHEANIARIPCGGTHCKGLTAFQSIQVTLKQVDEQHIEAVTCAQPSESELEHHHHHH”, the “soluble on expression in E. coli” value was “soluble”.
With “MSATINDLASFNKFFTENQHRFIRFAWTYTRDEVVAEDIVMESLMAYWENRDHMTPEINPAAYVLTVVKNKCLNYLRHLQLVNDVSDRVASHSEWELSNRIATLDACEPNALFASEVQDIIDRVISRLSATTARIFLLSRYDNKSHKEIAEIMGMTVKGVEFHISKATKELRVALKDYLVLFPFLCDFLSRN” the “soluble on expression in E. coli” value was “not soluble”.
In the case of “MSLKTKYIFVTGGVVSSLGKGITAASLGRLLKNRGLKVSIQKFDPYINVDPGTMSPYQHGEVFVTDDGAETDLDLGHYERFIDENLSKNSNVTTGKVYWSVINKERRGDYLGGTVQVIPHITNELKERVYRVAKEKDVDVVITEIGGTVGDIESLPFLEAIRQIKYEVGFGNSCFIHVTLLPYLRKAGEIKTKPTQHSVKELRGIGIQPDIIVCRTEKEISKDVRSKIGLFCNIDGDSVISNLDAENLYEVPLMLHDQGLDSLVCKKLELECQEVDNSEWESMVKNIKSLSGEVTIGLVGKYVELHDAYISVVESLNHGGFANNVSVNVKWINSEEVTKDNVDSVLSDVDGILVPGGFGDRGIEGKIEAIRWARENKIPFFGICLGMQCAVIEYARNVLGLEGAHSSEIDPQTKYPVIDLMPDQKDIDDKGGTMRLGLYACKLSKDTNAYDAYEEEVIYERHRHRYEFNNEFRKRLTEEGLILAGTSPDDRLVEIVEIKDHPWFVGVQFHPEFKSRPNRPHALFRDFIKVACTVKEKEGHHHHHH”, the “soluble on expression in E. coli” value is reported as “soluble”.
In the case of “MSAVSYSMHRTTTTTSSSSHGGVSAGHAAEEFVASAEREKQEMQQLNSRLEVYISRVRQLEDRNKELVIELDTLRGSLGNDIGQIKFKFNDSLVKVRREISEAHSGTIGVEVKVDRLRDDLNDYRHRYEEARREVEREKTTWGGAISQAQAELDTNKSRYAAILDEEKRLYAEQDQLYLQLAAAKDELDAAIVDRRRLQAEEDDLKIELEFLGRIHSQEITELRTLLAQAPADTREFFKNELALAIREIKAEYDKIIQTTRVDLETIFQSKISAVESSIVSKNEAAVFRQEEIRKMNESITTLRAKLSELEARNSALEREANTLQIQLGEDQRAYESELHKRDNALRFMREDCQTLIAELQALLNTKQTLDTEIAIYRKLVESEEGRFTHVGQGVVVAQQETTRLVPVEQDHWDSGEVQTRSSFKRHAKGNVSIVECDPQGKYIILENTSGSVAEDVSNFEIRRVIDGVQAFVFRLPSHLVIQQHGHLKIYGRNSGGINSPPDSIVMESHPSWGQGGQVETFLYNSHGIEKASHIQTTVASSR”, the “soluble on expression in E. coli” value is reported as “not soluble”.
For “MSGVYDSQADIYLDARPTYPADWYSKLAALSHRHNLAWDAGTGNGQAAIGIAEHYERVVATDVSETMLNLGKPHPKVTYHHTPSSMTEDEMVDLIGGENSVDLITVATAVHWFDLPRFYAIANRLLRKPGGIIAVWSYNTDMVVNPEFDSVMTRFIAETLPYCKFPESQYFLDGYKTLPFPFESVGLGSEGKPMELEMKKTVSFEGFLRMLRSWSAVGAAKEKGVDLLSDNVVKELETAWGGYELVRTIVYKTFMLAGTVP”, the “soluble on expression in E. coli” value was “soluble”.
For “MGSDKIHHHHHHMAPLAPLALSELGPKLDRSIDPLWISRQSLEAEPNAFKPGCGWLPNDWMPLESIRKALRSATRREDDSLLGYSSPLGLSALRDLLARRAQSKGIEANLNQVLLTDSGTQAIDLVCRFLLKPDDVVLIDDPCYFNFHALLKVHQVKVVGIPYTPNGPDLEAFKEAIESYNPRLYITNSGIHNPTGATLSLSTAHQLLKLIDQSNLIVIEDDIFSDFEYTPAPRLAALDNLSRVIFIGSFSKTLSASIRCGYIIAKPEWIDQIADLKIATSFSHNGLSAKILHTALTDGSYRKHLDLLKVRLAQAMQETIAKLKSIGIEPWIEPKAGIFVWCRLPEGVDAAKIARFCLNRQVILAPGNAFSQAQSAGQFIRFNITQSNHDYIYKTLAEALLQESLEKQV”, the “soluble on expression in E. coli” value was “not soluble”.
In the case of “MGSDKIHHHHHHMKKIVVLGGGPGGLVAAYNLARLLRGKAEITLIDKTGYHLFPPSLLWVMVGQREPEDIMRPLSKLEKHGIKVVTASVESIDPDNNKVATSGGEFEYDYLVVSLGSTPRPELMKADDTVCSPWTVEGALDCRRKLAGFKSGRIIVGAWSWPYKCPPAPFETAFLVKYLLEQRGGDAQVTVVHFWKKPMEPFGPTMAEAFQSFLDMYGVGFKGGVEPMEARGGRLVASSGEEIEYDLAVFAPPHEPPKPVAESPLGDESLGGYMRVDKRTLRSPRYGNVFGVGDIIAPSLGLGMAGIFAHFQAEYVASQIADEILGTYMGEHYNMSGVCVMDLGYAGAAVYCDFSKKVMGEAEYPDCVILGGMRAFRPLKYAFERYWLEKWFT”, the “soluble on expression in E. coli” value is reported as “not soluble”.
In the case of “MNSRQQSILQMVVDKGQMSVAELAKITGVSEVTIRQDLNTLEKQSYLRRAHGFAVSLESDDVETRMMTNYTLKRRLAEFAASLVSPGESVFIENGSSNALLARTLAEQKDVTIITVSSYIAHLLKETPCEVILLGGIYQKKSESMVGPLTRQFIHQVHFSKAFIGIDGWQADTGFTGRDMMRSDVVNAVLEKGSEAIVLTDSSKFGCVHPYPLGPLSRFHRVITDSKISASDQMQLEHAGLLVNVIGSSVLEHHHHHH”, the “soluble on expression in E. coli” value is reported as “soluble”.
For “MQLSHRPAETGDLETVAGFPQDRDELFYCYPKAIWPFSVAQLAAAIAERRGSTVAVHDGQVLGFANFYQWQHGDFCALGNMMVAPAARGLGVARYLIGVMENLAREQYKARLMKISCFNANAAGLLLYTQLGYQPRAIAERHDPDGRRVALIQMDKPLEP”, the “soluble on expression in E. coli” value was “soluble”.
